Laboratory results from patent publication US20080050370A1 (Biogen, published 2008).
Residue numbers refer to the chain shown, from its start. In names and notes the source's numbering stands.

B1: BHA10 scFv VL-S46L, (G4S)4 linker (scFv)
scFv: QVQLVQSGAEVKKPGSSVKVSCKASGYTFTTYYLHWVRQAPGQGLEWMGWIYPGNVHAQYNEKFKGRVTITADKSTSTAYMELSSLRSEDTAVYYCARSWEGFPYWGQGTTVTVSSGGGGSGGGGSGGGGSGGGGSDIQMTQSPSSLSASVGDRVTITCKASQNVGINVAWYQQKPGKAPKLLISSASYRYSGVPSRFSGSGSGTDFTLTISSLQPEDFATYFCQQYDTYPFTFGQGTKVEIKDDDDKSFLEQKLISEEDLNSAVDHHHHHH
notes: also called 072 VL-S46L; pIEH029
B2: BHA10 scFv VH-V55G, (G4S)4 linker (scFv)
scFv: B1 scFv with V56G, L182S
notes: also called 079 VH-V55G; pIEH070
B3: BHA10 (Gly4Ser)4 scFv (scFv)
scFv: QVQLVQSGAEVKKPGSSVKVSCKASGYTFTTYYLHWVRQAPGQGLEWMGWIYPGNVHAQYNEKFKGRVTITADKSTSTAYMELSSLRSEDTAVYYCARSWEGFPYWGQGTTVTVSSGGGGSGGGGSGGGGSGGGGSDIQMTQSPSSLSASVGDRVTITCKASQNVGINVAWYQQKPGKAPKSLISSASYRYSGVPSRFSGSGSGTDFTLTISSLQPEDFATYFCQQYDTYPFTFGQGTKVEIK
notes: His-tagged (captured through anti-PENTA-His); also called Wild-type, (G4S)*4 linker; GS4
B4: BHA10 scFv VH-S16Q, VL-S46L, (G4S)4 linker, no disulfide (scFv, name in Kabat numbering)
scFv: B3 scFv with S16Q, S182L
notes: Positions are Kabat numbers of the VH and VL domains; also called 078 VL-S46L + VH-S16Q; pIEH078
B5: BHA10 scFv VH-S16E, VH-V55G, VL-S46L, (G4S)4 linker (scFv, name in Kabat numbering)
scFv: B3 scFv with S16E, V56G, S182L
notes: Positions are Kabat numbers of the VH and VL domains; also called 087 VL-S46L + VH-S16E, V55G; pIEH087
B6: BHA10 scFv VH-P101D, (G4S)4 linker (scFv, name in Kabat numbering)
scFv: B3 scFv with P104D
notes: Built on the (G4S)4 scFv; The position is a Kabat number of VH; also called 077 VH-P101D; pIEH058
B7: BHA10 scFv VH-S16E, VL-S46L, (G4S)4 linker, no disulfide (scFv, name in Kabat numbering)
scFv: B3 scFv with S16E, S182L
notes: Positions are Kabat numbers of the VH and VL domains, not of the scFv entry; also called 076 VL-S46L + VH-S16E; pIEH076
B8: BHA10 scFv VH-S16E, (G4S)4 linker (scFv, name in Kabat numbering)
scFv: B3 scFv with S16E
notes: Positions are Kabat numbers of the VH domain; also called 074 VH-S16E; pIEH032
B9: BHA10 VH44:VL100/(Gly4Ser)4 scFv (scFv)
scFv: B3 scFv with G44C, Q236C
notes: Cys at Kabat VH44 and VL100 form a disulfide; also called Wild-type, (G4S)*4 linker w/ VH44/VL100 disulfide; 009 (ss)
B10: conventional BHA10 scFv, VH-(Gly4Ser)3-VL (scFv)
scFv: QVQLVQSGAEVKKPGSSVKVSCKASGYTFTTYYLHWVRQAPGQGLEWMGWIYPGNVHAQYNEKFKGRVTITADKSTSTAYMELSSLRSEDTAVYYCARSWEGFPYWGQGTTVTVSSGGGGSGGGGSGGGGSDIQMTQSPSSLSASVGDRVTITCKASQNVGINVAWYQQKPGKAPKSLISSASYRYSGVPSRFSGSGSGTDFTLTISSLQPEDFATYFCQQYDTYPFTFGQGTKVEIK
notes: also called Wild-type, (G4S)*3 linker; WT
B11: BHA10 Fab (Fab, V domains shown)
VH: QVQLVQSGAEVKKPGSSVKVSCKASGYTFTTYYLHWVRQAPGQGLEWMGWIYPGNVHAQYNEKFKGRVTITADKSTSTAYMELSSLRSEDTAVYYCARSWEGFPYWGQGTTVTVSS
VL: DIQMTQSPSSLSASVGDRVTITCKASQNVGINVAWYQQKPGKAPKSLISSASYRYSGVPSRFSGSGSGTDFTLTISSLQPEDFATYFCQQYDTYPFTFGQGTKVEIK
notes: Made by enzymatic cleavage of BHA10 IgG1; also called BHA10 Fab (CHO)
B12: BHA10 scFv VH44/VL100 disulfide, VH-S16E, VL-S46L, (G4S)4 linker (scFv, name in Kabat numbering)
scFv: B3 scFv with S16E, G44C, S182L, Q236C
notes: It is read here as the disulfide version; also called 080 VL-S46L + VH-S16E + ss
B13: BHA10 scFv VH44/VL100 disulfide, VH-S16Q, VL-S46L, (G4S)4 linker (scFv, name in Kabat numbering)
scFv: B3 scFv with S16Q, G44C, S182L, Q236C
notes: It is read here as the disulfide version; also called pIEH081
B14: IEH031 (GS4 + SS + VL S46L) (scFv)
scFv: B1 scFv with G44C, Q236C
modifications: chain 1: engineered disulfide bond between Cys at pos 44 (VH Kabat 44) and Cys at pos 236 (VL Kabat 100)
notes: also called pIEH031; BHA10 scFv VH44-VL100 disulfide, (Gly4Ser)4 linker, VL S46L
B15: BHA10 VH44/VL100 scFv (scFv)
scFv, VH-(Gly4Ser)3-VL: B10 scFv with G44C, Q231C
modifications: disulfide bond between VH44 Cys and VL100 Cys (Kabat)
notes: Expressed in E. coli; also called IEH006 (GS3 + SS); pIEH006
B16: BHA10 scFv VH44:VL100 NH-Hercules bispecific antibody (bispecific antibody)
heavy: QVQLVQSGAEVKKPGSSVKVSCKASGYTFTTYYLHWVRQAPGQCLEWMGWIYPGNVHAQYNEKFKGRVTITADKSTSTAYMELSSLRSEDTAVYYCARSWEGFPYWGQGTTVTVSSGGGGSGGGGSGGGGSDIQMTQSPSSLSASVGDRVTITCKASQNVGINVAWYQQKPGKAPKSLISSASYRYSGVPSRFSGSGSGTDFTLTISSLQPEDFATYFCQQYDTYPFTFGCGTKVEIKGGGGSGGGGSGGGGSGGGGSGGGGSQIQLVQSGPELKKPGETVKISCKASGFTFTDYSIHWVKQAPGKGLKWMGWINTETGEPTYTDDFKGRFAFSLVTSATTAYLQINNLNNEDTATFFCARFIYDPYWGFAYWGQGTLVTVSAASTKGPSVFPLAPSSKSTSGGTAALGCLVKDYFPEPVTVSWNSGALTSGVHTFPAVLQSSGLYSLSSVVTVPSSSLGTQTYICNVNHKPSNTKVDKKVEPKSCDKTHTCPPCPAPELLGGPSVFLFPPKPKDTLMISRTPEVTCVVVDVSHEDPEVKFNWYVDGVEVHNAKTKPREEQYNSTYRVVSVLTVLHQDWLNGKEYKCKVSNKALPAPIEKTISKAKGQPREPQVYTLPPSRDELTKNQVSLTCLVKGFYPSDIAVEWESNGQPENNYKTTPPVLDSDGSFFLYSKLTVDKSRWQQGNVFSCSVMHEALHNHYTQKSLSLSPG
light: QLVLTQSSSVSFSLGASAKLTCTLSSQHSTYTIEWYQQQPLKPPKYVMELKKDGSHSTGDGIPDRFSGSSSGADRYLSISNIQPEDEAIYICGVGDTIKEQFVYVFGGGTKVEIKRTVAAPSVFIFPPSDEQLKSGTASVVCLLNNFYPREAKVQWKVDNALQSGNSQESVTEQDSKDSTYSLSSTLTLSKADYEKHKVYACEVTHQGLSSPVTKSFNRGEC
notes: BHA10 scFv (anti-LTβR) joined by a (Gly4Ser)5 linker to the N-terminus of the chimeric 14A2 IgG1 (anti-TRAIL R2) heavy chain; also called N-Hercules with VH44:VL100 BHA10 scFv; N-"Hercules" Cys
B17: BHA10 scFv VH44:VL100/(Gly4Ser)4 C-Hercules bispecific antibody (bispecific antibody, human IgG1, kappa)
heavy: not shown
light: B16 light
notes: scFv at the C-terminus of the chimeric 14A2 IgG1 heavy chain; For signal peptides see m17; also called XWU036; pXWU036
B18: BHA10 scFv VH44:VL100/(Gly4Ser)4 NH-Hercules bispecific antibody (bispecific antibody, human IgG1, kappa)
heavy: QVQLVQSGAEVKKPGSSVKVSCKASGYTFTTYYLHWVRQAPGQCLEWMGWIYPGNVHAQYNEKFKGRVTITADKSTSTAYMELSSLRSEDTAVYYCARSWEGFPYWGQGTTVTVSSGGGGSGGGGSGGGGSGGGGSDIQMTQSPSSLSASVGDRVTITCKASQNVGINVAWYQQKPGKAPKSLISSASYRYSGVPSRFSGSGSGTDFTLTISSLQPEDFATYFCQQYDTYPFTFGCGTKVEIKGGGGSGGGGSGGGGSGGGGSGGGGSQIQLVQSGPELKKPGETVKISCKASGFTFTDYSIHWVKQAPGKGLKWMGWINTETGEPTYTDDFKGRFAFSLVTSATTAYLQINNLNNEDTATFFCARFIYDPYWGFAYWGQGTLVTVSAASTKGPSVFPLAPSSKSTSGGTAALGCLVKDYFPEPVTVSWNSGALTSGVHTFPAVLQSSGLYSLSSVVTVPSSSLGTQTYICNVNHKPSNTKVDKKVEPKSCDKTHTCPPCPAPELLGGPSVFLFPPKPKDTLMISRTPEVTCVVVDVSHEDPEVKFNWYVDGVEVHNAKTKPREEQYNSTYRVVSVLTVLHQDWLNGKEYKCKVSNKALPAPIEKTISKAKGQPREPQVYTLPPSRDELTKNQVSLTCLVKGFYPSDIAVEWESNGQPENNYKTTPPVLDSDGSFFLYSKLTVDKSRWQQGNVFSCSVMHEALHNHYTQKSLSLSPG
light: B16 light
notes: scFv at the N-terminus of the chimeric 14A2 IgG1 heavy chain; For signal peptides see m17; also called XWU028; pXWU028
B19: BHA10 scFv VH44:VL100 C-Hercules bispecific antibody (bispecific antibody, human IgG1, kappa)
heavy: not shown
light: B16 light
notes: BHA10 scFv joined by a Ser(Gly4Ser)3 linker to the C-terminus of the chimeric 14A2 IgG1 heavy chain; For signal peptides see m17; also called C-Hercules with VH44:VL100 BHA10 scFv; C-"Hercules" Cys

These binders were tested against T1, sLTβR (UniProt P36941 31-227, limits assumed) (assay: SPR (Biacore 3000)).
T1 construct: Used in solution in ITC and as the analyte in SPR; also called soluble lymphotoxin beta receptor; antigen
T1 sequence (P36941 31-227 limits assumed): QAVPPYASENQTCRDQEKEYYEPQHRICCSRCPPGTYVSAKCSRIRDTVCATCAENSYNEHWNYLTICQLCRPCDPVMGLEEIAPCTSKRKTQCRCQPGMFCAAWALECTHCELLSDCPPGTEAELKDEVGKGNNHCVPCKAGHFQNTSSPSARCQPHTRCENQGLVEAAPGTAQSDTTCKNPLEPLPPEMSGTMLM

| Binder | Kd [nM] |
| --- | --- |
| B1 | 4 |
| B2 | 2.2 |
| B3 | 2.1 |
| B4 | 4.2 |
| B5 | 3.8 |
| B6 | 5.2 |
| B7 | 3.4 |
| B8 | 2 |
| B9 | 3.3 |
| B10 | 2.7 |

Each binder was assayed against T1, sLTβR (assay: isothermal titration calorimetry at 30 °C, Fab titrated into sLTβR in PBS).
Procedure: The Fab and sLTβR were concentrated to 6.0 and 2.0 mg/mL, respectively, using Amicon ultracentrifugal filter devices (MWCO 10,000). The concentrated stock solutions were simultaneously dialyzed against PBS prior to the ITC measurements. ITC was performed on a VP-ITC unit (MicroCal LLC, Northampton, Mass.) set to 30° C. Approximately 500 μL of a 7 μM sLTβR solution was placed into the sample cell and PBS dialysate was placed in the reference cell. […] ITC curves were analysed using the Origin Software supplied by the manufacturer.

| Binder | Kd [nM] |
| --- | --- |
| B11 | 1.9 |

What follows are binders tested against T1, sLTβR (assay: SPR (Biacore 3000), scFv captured on anti-PENTA-His, sLTβR as analyte, 1:1 Langmuir fit).
Procedure: (§1) All experiments were performed in HBS-EP buffer, pH 7.4. […] 0.1 μM solutions of test scFvs were injected over the chip at a flow rate of 5 μl/min for 10 minutes and captured onto the surface via the immobilized PENTA-His antibody. To investigate binding between sLTβR and captured scFv, a concentration series of sLTβR (1, 2, 5, 10, 25, 50, 100, and 200 nM) was double injected at a flow rate of 30 μl/min onto the scFv-coated surface. Background was subtracted from test sample sensorgrams using sensorgram data from a flow cell containing buffer only and sensorgram data from the PENTA-His surface where scFv was injected followed by an injection of buffer instead of sLTβR. The curves were analyzed using the BiaEval 3.0 manufacturer's software. KD values were calculated by fitting kinetic association and dissociation curves to a 1:1 Langmuir binding model. Chip surfaces were regenerated by two consecutive 10 μL injections of 0.1 M glycine, pH 3.0.

| Binder | Kd [nM] |
| --- | --- |
| B3 | 2.5 |
| B9 | 4.3 |

Each binder was assayed against T1, sLTβR (assay: SPR (Biacore 3000), scFv captured on anti-PENTA-His, sLTβR 1-200 nM as analyte, 1:1 Langmuir fit).
Procedure: as §1

| Binder | Kd [nM] |
| --- | --- |
| B10 | 3.7 |

These binders were tested against T1, sLTβR (assay: SPR (Biacore 3000); with VH44/VL100 disulfide (second 'VH-S16E, VL-S46L' row, below the disulfide wild-type)).

| Binder | Kd [nM] |
| --- | --- |
| B12 | 4 |

The binders below were run against T1, sLTβR (assay: SPR (Biacore 3000); with VH44/VL100 disulfide (second 'VH-S16Q, VL-S46L' row, below the disulfide wild-type)).

| Binder | Kd [nM] |
| --- | --- |
| B13 | 3.3 |

The binders below were run against T2, LTβR-Ig (UniProt P36941 31-227, limits assumed) (assay: thermal challenge assay, remaining binding to plate-coated LTβR-Ig read by DELFIA; unit taken from the x axis).
T2 construct: extracellular domain; also called LTβR Ig receptor; recombinantly produced LTβR receptor; not shown: human Fc region
T2 sequence (P36941 31-227 limits assumed): as above

| Binder | midpoint temperature of the thermal challenge curve (T50) [°C] |
| --- | --- |
| B1 | 60.3 |
| B14 | 72.3 |
| B9 | 63.3 |
| B15 | 61.5 |

What follows are binders tested against T2, LTβR-Ig (assay: thermal challenge assay; T50 = temperature at which 50% of the molecules keep binding to plate-coated LTβR-Ig (DELFIA); unit taken from the x axis).
Procedure: An aliquot of the supernatant was reserved for the reference DELFIA. […] For screens requiring multiple challenge temperatures (or for temperatures greater than 75° C.) the supernatants were transferred to 96-well PCR plates (Applied Biosystems, Foster City, Calif., Cat. # N801-560) and incubated for 90 minutes at the desired temperature.
After thermal challenge, the samples were centrifuged at 2,000 RPM to remove aggregated material. Soluble BHA10 scFv samples remaining in the treated, cleared supernatant were assayed for binding to cognate LTβR Ig antigen by DELFIA assay. […] Plates were coated overnight at 4° C., and blocked with DELFIA assay buffer (DAB, 10 mM Tris HCl, 150 mM NaCl, 20 μM EDTA, 0.5% BSA, 0.02% Tween 20, 0.01% NaN₃, pH 7.4) for one hour with shaking at room temperature. Plates were washed 3 times with DAB without BSA (Wash buffer), and test samples diluted in DAB were added to the plates in a final volume of 100 μl. The plates were incubated for one hour with shaking at room temperature, and then washed 3 times with Wash buffer to remove unbound and functionally inactivated scFv molecules. Bound BHA10 scFv was detected by addition of 100 μl per well of DAB containing 40 ng/ml of Eu-labeled anti-His₆ antibody (Perkin Elmer, Boston, Mass., Cat. # AD0109) and incubated at room temperature with shaking for one hour.

| Binder | T50 [°C] |
| --- | --- |
| B3 | 53 |
| B9 | 62 |
| B10 | 49 |
| B15 | 59 |
| B11 | 62 |

What follows are binders tested against T2, LTβR-Ig (assay: bispecific sandwich ELISA: LTβR-Ig coated on the plate, purified antibody titrated, then TRAIL-R2 Fc 6X-His, detection with anti-His HRP conjugate; signal needs binding to both receptors).
Procedure: In the next step, 100 μl individual ‘Hercules’ supernatant or purified protein in dilution buffer was added to duplicate wells and incubated for 1 h at 37° C. After washing with tap water, 100 μl of 100 ng/ml TRAIL-R2 Fc 6X-His tagged fusion protein (R&D Systems, Minneapolis, Minn.) was added to the wells and incubated for 1 h at 37° C. […] After washing, 100 μl/well of a HRPO Substrate combined TMB Peroxidase Substrate/Peroxidase Solution B (Kirdgaard and Perry Labs, Cat. 50-76-00) was added. The reaction was stopped with 100 μl of 2M H₂SO₄ after 5 to 10 min. The OD was measured at 450 nm and 540 nm using a Molecular Devices plate reader and binding curves were generated.
Purified versions of the stabilized Hercules constructs were then tested for bispecific binding activity to recombinantly produced TRAIL-R2 and LTβR receptors in an ELISA assay. In this assay LTβR Ig receptor was immobilized onto plates and test samples were then incubated to permit binding to receptor. Unbound samples were removed by washing followed by a second incubation step with TRAIL R2-(His)₆. Following a wash step, doubly-bound complexes were detected with a labeled anti-(His)₆ antibody.

| Binder | EC50 [µg/mL] |
| --- | --- |
| B16 | 0.041 |
| B17 | 0.086 |
| B18 | 0.055 |
| B19 | 0.087 |
